In patent publication US20260209321A1 (SINGAPORE HEALTH SERVICES PTE, published 2026):

Experiments:
[1] = molecular target: T1, Peptide-biotin; experiment: SPR Biacore 8K affinity ranking; antibody Fc-captured, Peptide-biotin analyte, 1:1 fit
T1 construct: also called antigen
Experimental: For affinity ranking, antibodies were captured on the sensor chip through Fc capture method. Peptide-biotin was used as the analyte. The surface was regenerated before the injection of another antibody. The process was repeated until all antibodies are analyzed. The off-rates of antibodies were obtained from fitting the experimental data locally to 1:1 interaction model using the Biacore 8K evaluation software. The antibodies were ranked by their dissociation rate constants (off-rates, kd). Based on the ranking result, the top 3 clones were selected.
Humanized antibodies were generated by replacing the framework regions (FRs) from mouse M4M antibody with counterparts from human, while maintaining the antibody's complementarity-determining regions (CDRs) binding regions. The antibody binding affinity of the chimeric and humanized antibodies was assessed by surface plasmon resonance (SPR) as shown in Table 1. Antibody clone A1 is the chimeric antibody and antibody clones A2-7 are humanized antibodies. Based on the results obtained from SPR, humanized clone A2 has the strongest SPR signal. For affinity ranking, antibodies were captured on the sensor chip through Fc capture method. Peptide-biotin was used as the analyte. The surface was regenerated before the injection of another antibody. The process was repeated until all antibodies are analyzed. The off-rates of antibodies were obtained from fitting the experimental data locally to 1:1 interaction model using the Biacore 8K evaluation software. The antibodies were ranked by their dissociation rate constants (off-rates, kd). Based on the ranking result, the top humanized clones were selected. […] Bolded and underlined amino acids correspond to the back mutation sites in the framework regions.

[2] = molecular target: T1, Peptide-biotin; experiment: SPR Biacore 8K, purified IgG Fc-captured, Peptide-biotin analyte, 1:1 fit
Experimental: The affinity of purified antibody binding to Peptide-biotin was individually determined using a Surface Plasmon Resonance (SPR) biosensor, Biacore 8K (GE Healthcare). Antibodies were captured on the sensor chip through Fc capture method. Peptide-biotin was used as the analyte. The data of dissociation (kd) and association (ka) rate constants were obtained using Biacore 8K evaluation software. The equilibrium dissociation constants (KD) were calculated from the ratio of kd over ka.

[3] = molecular target: human TRPM4 expressed in transfected HEK 293 cells (human, UniProt Q8TD43 1-1214); experiment: cell-based or functional assay
human TRPM4 expressed in transfected HEK 293 cells, sequence (Q8TD43 whole entry): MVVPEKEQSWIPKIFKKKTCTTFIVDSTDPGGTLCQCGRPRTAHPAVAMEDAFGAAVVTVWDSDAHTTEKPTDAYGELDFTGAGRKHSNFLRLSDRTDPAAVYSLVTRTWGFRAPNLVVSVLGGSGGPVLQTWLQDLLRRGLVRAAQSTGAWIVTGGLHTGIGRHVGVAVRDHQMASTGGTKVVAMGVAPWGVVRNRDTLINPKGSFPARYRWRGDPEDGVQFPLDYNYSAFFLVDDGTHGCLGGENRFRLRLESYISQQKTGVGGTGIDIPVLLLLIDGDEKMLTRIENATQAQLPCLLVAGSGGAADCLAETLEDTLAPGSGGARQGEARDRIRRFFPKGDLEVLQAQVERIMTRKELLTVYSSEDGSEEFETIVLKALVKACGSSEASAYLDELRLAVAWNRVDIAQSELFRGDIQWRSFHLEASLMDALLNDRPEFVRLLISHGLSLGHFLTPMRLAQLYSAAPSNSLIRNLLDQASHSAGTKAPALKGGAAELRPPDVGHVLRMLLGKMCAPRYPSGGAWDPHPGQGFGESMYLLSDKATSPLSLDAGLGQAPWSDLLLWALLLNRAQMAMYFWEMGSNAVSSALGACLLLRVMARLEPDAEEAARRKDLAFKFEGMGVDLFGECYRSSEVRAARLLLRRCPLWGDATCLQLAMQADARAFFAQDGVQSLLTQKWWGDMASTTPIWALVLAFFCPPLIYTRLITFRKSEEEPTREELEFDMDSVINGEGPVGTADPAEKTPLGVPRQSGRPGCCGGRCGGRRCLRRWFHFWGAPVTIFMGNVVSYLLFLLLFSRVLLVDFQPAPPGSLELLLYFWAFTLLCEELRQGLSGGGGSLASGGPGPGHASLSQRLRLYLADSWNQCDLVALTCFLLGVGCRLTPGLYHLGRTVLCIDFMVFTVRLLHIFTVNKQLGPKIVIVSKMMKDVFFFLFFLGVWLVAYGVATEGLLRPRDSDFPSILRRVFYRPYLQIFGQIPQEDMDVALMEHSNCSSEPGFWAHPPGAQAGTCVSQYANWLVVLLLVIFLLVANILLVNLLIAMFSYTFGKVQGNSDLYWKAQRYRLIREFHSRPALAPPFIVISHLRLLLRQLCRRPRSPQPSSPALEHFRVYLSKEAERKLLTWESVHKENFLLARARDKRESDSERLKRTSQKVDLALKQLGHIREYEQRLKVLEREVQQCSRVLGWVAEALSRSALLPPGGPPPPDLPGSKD

B1: humanized anti-TRPM4 antibody clone A2 (VH1 + VL1) (antibody, human IgG1, kappa, V domains shown)
VH: QVQLQESGPGLVKPSQTLSLTCTVSGYSITSDYAWNWIRQHPGKGLEWIGYLSYSGVTSYNPSLKGRVTISVDTSKNQFSLKLSSVTAADTAVYYCARKGTYYRYEGSYWYFDVWGQGTTVTVSS
VL: DIQMTQSPSSLSASVGDRVTITCHANQNIDVWLSWYQQKPGKAPKLLIYKTSNLHTGVPSRFSGSGSGTDFTFTISSLQPEDIATYYCQQGQSYPLTFGGGTKLEIKR
notes: also called VH1 + VL1 (A2)
Kd [1]: 6.66 nM | koff [1]: 0.00166 s⁻¹ | kon [1]: 249000 M⁻¹ s⁻¹ | Kd [2]: 3.16 nM | koff [2]: 0.000605 s⁻¹ | kon [2]: 191000 M⁻¹ s⁻¹ | IC50 of dose-dependent inhibition of hypoxia-induced TRPM4 current increase (whole-cell patch clamp) [3]: 1.23 µg/mL
